Data on one molecule can be found in patent publication US20110020802, “NUCLEIC ACIDS, METHODS AND KITS FOR THE DIAGNOSIS OF DYT6 PRIMARY TORSION DYSTONIA” (Mount Sinai School of Medicine of New York University, published 2011).

This data set concerns the target T1, THAP1 wild type (Homo sapiens, UniProt Q9NVV9 SEQ:1-213).
T1 sequence: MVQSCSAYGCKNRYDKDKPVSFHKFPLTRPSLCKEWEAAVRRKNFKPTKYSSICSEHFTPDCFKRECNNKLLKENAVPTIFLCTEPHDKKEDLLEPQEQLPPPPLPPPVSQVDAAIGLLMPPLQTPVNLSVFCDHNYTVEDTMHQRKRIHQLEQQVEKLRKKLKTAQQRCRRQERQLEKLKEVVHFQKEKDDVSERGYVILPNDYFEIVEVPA
The data set is described as follows: EMSA; specific band supershifted by anti-THAP1 and competed by >200x unlabeled THABS; 150 mM KCl, 20 mM Tris pH 7.5, poly(dI-dC), room temperature. Particulars: tags: N-terminal V5 (pcDNA3.1/nV5); label: 5'-32P. The procedure:
Double-stranded oligonucleotide was prepared by annealing synthetic complementary oligonucleotides (5′-[…]-3′ (SEQ ID NO: 17) and the reverse complement of this oligo 5′ […]-3′ (SEQ ID NO: 48)) in 20 mM Tris/HCl (pH 7.5), 10 mM MgCl2, 50 mM NaCl, 1 mM dithiothreitol (DTT) by heating for 5 min at 95° c, and cooling to room temperature overnight. Probes were end-labeled with [gamma-³²P]ATP using T4 polynucleotide kinase. Unincorporated nucleotides were removed by column chromatography (illustra MicroSpin™ G-25 Columns, GE Healthcare), according to the manufacturer's protocol. […] Following buffer at 150 V at room temperature, gels were dried and exposed to storage Phosphor screens that were scanned and analyzed using a Typhoon phosphorimager (GE Healthcare).
The two constructs were expressed in an in vitro transcription/translation (IVTT) system and assessed by western for equal levels of protein expression (FIG. 4A). When the radiolabeled THABS probe was incubated with the IVTT wild-type THAP1, a major shifted band was detected (FIG. 4B, lane 6, arrowhead). […]

B1: THABS probe (dsDNA)
DNA 1: AGCAAGTAAGGGCAACTACTTCAT
DNA 2: ATGAAGTAGTTGCCCTTACTTGCT
As for B1, the binding result is given as “binds”.
